Measurements as given in the supplement of paper PMC10065799, “High-throughput profiling of sequence recognition by tyrosine kinases and SH2 domains using bacterial peptide display” (eLife, 2023).

Assays:
Fer (mouse) = assay: phosphorylation enrichment, bacterial display (enrichment ratio); higher = better substrate or ligand; peptides without Tyr show the background
MERTK = MERTK (UniProt Q12866); assay: as above
c-Src = assay: as above
c-Abl (mouse) = assay: as above
AncSZ = assay: as above
Jak2 = Jak2 (UniProt O60674); assay: as above
Jak2, sequence (O60674 whole entry, looked up): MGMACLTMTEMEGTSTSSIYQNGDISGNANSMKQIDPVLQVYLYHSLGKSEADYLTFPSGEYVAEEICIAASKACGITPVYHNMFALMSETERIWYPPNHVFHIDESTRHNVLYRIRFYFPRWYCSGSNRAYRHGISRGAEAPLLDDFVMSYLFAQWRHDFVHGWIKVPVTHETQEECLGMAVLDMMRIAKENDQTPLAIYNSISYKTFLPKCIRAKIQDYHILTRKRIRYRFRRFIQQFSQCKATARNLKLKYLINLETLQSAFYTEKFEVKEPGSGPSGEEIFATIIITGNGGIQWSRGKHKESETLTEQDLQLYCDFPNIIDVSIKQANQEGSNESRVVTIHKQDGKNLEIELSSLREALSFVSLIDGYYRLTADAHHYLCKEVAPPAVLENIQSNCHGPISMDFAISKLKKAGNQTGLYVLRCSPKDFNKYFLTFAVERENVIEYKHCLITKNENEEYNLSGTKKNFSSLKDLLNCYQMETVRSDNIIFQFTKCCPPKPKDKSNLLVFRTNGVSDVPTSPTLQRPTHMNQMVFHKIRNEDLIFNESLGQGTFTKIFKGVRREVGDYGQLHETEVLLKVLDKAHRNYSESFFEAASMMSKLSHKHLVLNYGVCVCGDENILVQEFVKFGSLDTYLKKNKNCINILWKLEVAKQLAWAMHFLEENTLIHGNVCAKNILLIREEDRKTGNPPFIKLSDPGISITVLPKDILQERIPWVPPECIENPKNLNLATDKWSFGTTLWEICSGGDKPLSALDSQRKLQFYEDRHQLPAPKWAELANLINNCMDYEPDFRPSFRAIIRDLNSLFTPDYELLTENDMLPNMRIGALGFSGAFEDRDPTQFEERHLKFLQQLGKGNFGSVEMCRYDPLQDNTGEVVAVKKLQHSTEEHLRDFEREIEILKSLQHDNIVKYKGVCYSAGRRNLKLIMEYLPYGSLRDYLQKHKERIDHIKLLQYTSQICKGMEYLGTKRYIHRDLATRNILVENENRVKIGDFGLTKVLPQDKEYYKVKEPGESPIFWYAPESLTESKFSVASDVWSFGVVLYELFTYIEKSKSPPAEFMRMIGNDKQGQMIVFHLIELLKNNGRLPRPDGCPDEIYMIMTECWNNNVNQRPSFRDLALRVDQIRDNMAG

Fyn = Fyn (UniProt P06241); assay: as above
Fyn, sequence (P06241 whole entry, looked up): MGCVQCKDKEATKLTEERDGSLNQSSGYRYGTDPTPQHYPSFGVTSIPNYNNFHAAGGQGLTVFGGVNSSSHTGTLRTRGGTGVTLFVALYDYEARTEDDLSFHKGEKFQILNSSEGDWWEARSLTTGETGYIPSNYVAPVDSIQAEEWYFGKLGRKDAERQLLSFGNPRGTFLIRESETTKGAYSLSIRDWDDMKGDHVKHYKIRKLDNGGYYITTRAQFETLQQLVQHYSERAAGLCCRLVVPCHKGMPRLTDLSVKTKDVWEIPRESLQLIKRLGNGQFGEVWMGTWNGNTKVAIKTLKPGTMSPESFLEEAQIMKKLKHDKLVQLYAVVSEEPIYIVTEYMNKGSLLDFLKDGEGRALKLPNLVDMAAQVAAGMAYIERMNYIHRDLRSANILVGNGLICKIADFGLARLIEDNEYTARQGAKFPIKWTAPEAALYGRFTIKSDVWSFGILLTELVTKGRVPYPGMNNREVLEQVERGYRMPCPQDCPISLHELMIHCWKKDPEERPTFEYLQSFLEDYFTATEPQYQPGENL

FGFR1 = FGFR1 (UniProt P11362); assay: as above
FGFR1, sequence (P11362 whole entry, looked up): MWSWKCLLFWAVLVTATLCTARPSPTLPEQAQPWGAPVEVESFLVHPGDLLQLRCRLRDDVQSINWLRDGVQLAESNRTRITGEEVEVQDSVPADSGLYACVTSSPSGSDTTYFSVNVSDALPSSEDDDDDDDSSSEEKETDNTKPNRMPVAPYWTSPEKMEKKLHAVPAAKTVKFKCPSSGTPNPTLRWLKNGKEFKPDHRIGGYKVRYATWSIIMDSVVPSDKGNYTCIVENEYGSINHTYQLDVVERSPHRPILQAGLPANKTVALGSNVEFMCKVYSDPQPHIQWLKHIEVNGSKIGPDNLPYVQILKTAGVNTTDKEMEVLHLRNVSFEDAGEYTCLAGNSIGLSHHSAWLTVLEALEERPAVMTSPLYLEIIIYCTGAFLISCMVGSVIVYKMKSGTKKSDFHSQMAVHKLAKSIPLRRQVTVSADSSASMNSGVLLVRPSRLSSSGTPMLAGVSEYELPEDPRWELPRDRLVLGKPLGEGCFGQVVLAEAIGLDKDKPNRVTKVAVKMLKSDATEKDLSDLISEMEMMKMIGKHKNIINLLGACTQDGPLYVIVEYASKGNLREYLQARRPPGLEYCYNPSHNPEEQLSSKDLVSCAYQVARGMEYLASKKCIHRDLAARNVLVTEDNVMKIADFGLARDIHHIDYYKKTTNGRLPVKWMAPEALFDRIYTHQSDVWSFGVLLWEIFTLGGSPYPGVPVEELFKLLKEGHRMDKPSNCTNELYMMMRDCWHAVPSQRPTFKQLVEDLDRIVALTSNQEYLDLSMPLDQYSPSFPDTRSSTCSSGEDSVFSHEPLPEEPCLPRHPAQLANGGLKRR

FGFR3 = FGFR3 (UniProt P22607); assay: as above
FGFR3, sequence (P22607 whole entry, looked up): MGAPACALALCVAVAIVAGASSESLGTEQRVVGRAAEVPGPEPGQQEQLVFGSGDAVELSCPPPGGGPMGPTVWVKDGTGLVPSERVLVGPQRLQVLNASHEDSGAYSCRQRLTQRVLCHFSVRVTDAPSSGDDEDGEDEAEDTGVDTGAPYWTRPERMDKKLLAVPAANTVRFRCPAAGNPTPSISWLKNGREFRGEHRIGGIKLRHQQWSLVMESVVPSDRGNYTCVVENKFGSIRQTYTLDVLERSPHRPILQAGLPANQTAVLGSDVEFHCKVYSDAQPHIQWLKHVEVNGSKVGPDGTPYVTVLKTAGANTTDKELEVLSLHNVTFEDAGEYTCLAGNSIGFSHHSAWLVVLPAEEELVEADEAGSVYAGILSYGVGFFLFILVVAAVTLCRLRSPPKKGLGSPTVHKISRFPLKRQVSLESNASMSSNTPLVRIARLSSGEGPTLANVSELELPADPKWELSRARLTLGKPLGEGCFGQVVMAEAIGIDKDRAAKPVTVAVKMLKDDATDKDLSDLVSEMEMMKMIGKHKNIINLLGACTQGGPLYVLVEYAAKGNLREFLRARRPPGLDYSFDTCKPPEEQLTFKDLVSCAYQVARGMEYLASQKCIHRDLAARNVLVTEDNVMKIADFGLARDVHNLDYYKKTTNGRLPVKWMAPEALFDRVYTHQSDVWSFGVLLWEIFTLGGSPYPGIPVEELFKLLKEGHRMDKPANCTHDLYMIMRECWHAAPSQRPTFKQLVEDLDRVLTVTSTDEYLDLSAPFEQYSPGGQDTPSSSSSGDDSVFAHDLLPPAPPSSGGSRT

Fes = Fes (UniProt P07332); assay: as above
Fes, sequence (P07332 whole entry, looked up): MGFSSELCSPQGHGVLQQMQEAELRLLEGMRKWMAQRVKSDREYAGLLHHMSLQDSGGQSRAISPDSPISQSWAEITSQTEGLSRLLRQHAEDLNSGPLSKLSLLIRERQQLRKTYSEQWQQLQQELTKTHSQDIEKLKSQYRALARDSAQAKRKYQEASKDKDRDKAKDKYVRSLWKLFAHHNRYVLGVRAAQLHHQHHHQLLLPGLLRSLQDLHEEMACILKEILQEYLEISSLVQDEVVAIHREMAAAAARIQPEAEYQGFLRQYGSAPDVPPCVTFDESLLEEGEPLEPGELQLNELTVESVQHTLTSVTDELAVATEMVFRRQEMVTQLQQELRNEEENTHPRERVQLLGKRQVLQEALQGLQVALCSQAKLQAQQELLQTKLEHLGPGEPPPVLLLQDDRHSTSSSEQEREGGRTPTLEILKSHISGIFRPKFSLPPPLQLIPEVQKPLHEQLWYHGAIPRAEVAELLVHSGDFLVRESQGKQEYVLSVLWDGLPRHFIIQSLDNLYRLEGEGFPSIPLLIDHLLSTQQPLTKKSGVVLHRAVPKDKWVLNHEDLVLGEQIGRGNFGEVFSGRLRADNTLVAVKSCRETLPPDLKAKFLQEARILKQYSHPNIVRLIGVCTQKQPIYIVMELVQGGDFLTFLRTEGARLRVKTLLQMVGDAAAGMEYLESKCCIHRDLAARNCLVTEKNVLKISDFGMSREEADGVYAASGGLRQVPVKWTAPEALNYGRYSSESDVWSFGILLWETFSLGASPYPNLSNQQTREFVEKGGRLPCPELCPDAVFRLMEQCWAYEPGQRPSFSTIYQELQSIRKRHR

EPHB1 = EPHB1 (UniProt P54762); assay: as above
EPHB2 = EPHB2 (UniProt P29323); assay: as above
Hck = Hck (UniProt P08631); assay: as above
Hck, sequence (P08631 whole entry, looked up): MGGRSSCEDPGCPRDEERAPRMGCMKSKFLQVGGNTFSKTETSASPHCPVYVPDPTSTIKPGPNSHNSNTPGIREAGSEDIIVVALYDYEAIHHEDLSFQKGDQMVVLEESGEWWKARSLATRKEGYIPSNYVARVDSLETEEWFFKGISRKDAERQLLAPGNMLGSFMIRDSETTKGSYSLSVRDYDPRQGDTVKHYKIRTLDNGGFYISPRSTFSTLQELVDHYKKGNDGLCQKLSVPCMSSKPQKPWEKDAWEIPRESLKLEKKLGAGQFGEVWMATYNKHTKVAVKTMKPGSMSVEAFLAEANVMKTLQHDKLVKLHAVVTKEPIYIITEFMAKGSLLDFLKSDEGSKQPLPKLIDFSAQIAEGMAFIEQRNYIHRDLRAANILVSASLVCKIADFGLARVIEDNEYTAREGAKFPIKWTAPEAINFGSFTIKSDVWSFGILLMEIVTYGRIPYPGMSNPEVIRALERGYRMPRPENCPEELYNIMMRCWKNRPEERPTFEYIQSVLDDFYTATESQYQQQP

c-Src SH2 = assay: SH2 binding enrichment of the phosphorylated peptide, bacterial display (enrichment ratio); higher = better substrate or ligand; peptides without Tyr show the background
SHP2-C SH2 = assay: as above
Grb2 SH2 = Grb2 SH2 (UniProt P62993); assay: as above
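Throughout, for SH2 binding enrichment of the phosphorylated peptide, bacterial display: peptide library displayed on the E. coli surface as eCPX fusions, selected cells deep-sequenced, score is each peptide's frequency after selection divided by its frequency in the input.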
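Throughout, for phosphorylation enrichment, bacterial display: 11-residue human phosphosite peptides and single-mutation variants displayed on the E. coli surface, counted by deep sequencing, each peptide's frequency after selection divided by its frequency in the unselected input library; frequency after pTyr selection over input frequency; kinase dosed for 20-30% of maximal phosphorylation in three min.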

Row | Sequence | SH2 binding enrichment (c-Src SH2) | SH2 binding enrichment (SHP2-C SH2) | SH2 binding enrichment (Grb2 SH2) | phosphorylation enrichment (Fer (mouse)) | phosphorylation enrichment (MERTK) | phosphorylation enrichment (c-Src) | phosphorylation enrichment (c-Abl (mouse)) | phosphorylation enrichment (AncSZ) | phosphorylation enrichment (Jak2) | phosphorylation enrichment (Fyn) | phosphorylation enrichment (FGFR1) | phosphorylation enrichment (FGFR3) | phosphorylation enrichment (Fes) | phosphorylation enrichment (EPHB1) | phosphorylation enrichment (EPHB2) | phosphorylation enrichment (Hck)
1 | SSVKPYRVFCD [FGB_Y266_YF] | 0.758 | 1.08 | 1.11 | 0.34 | 0.392 | 0.481 | 0.7 | 0.701 | 0.678 | 0.419 | 0.453 | 0.552 | 0.74 | 0.432 | 0.394 | 0.432
2 | SSWPDYVRPLP [HSPB1_Y54_G53D] | 0.489 | 0.71 | 0.974 | 0.54 | 0.437 | 0.475 | 0.808 | 4.98 | 7.67 | 0.442 | 2.49 | 1.6 | 0.93 | 1.57 | 0.599 | 0.511
3 | SVKVYYKKCWF [EPHA7_Y202_S207F] | 0.501 | 0.657 | 0.712 | 0.433 | 0.356 | 0.448 | 0.856 | 1.12 | 1.08 | 0.375 | 0.432 | 0.596 | 1.14 | 0.553 | 0.531 | 0.382
4 | SVTCTYSPALN [TP53_Y126] | 0.401 | 0.616 | 0.766 | 0.626 | 0.456 | 0.66 | 0.976 | 1.53 | 1.45 | 0.489 | 0.517 | 0.984 | 1.72 | 0.794 | 0.723 | 0.641
5 | TAALWYIYSHT [ENG_Y612] | 0.6 | 0.918 | 0.781 | 0.586 | 0.878 | 1.82 | 0.748 | 1.15 | 0.984 | 1.52 | 0.497 | 0.689 | 1.14 | 0.794 | 0.832 | 1.3
6 | TDLAFYLVREG [ASL_Y376_K380E_YF] | 0.612 | 0.675 | 0.634 | 0.555 | 0.501 | 0.519 | 0.85 | 1.28 | 1.24 | 0.437 | 0.574 | 1.01 | 1.59 | 0.709 | 0.703 | 0.546
7 | TDRNLYSKNLV [CFAP58_Y501_S496T] | 0.408 | 0.559 | 0.769 | 1.35 | 0.959 | 0.627 | 0.66 | 0.564 | 0.758 | 0.465 | 0.505 | 0.531 | 0.737 | 0.555 | 0.56 | 0.654
8 | TDTQLYGRFGS [ITGA2B_Y384_G380D] | 0.418 | 0.656 | 0.734 | 0.479 | 0.98 | 7.4 | 0.769 | 0.783 | 0.645 | 11.1 | 0.487 | 0.464 | 0.888 | 0.608 | 0.583 | 9.16
9 | TEFSQYMRRKN [MAX_Y73_I71S_YF] | 0.37 | 0.279 | 0.608 | 0.516 | 0.727 | 0.735 | 0.836 | 0.76 | 0.727 | 0.647 | 0.718 | 0.626 | 0.901 | 0.538 | 0.625 | 0.715
10 | TEGNGYISFNE [LCP1_Y28_D24E] | 14.1 | 0.889 | 0.722 | 0.487 | 0.499 | 0.573 | 0.723 | 1.09 | 0.823 | 0.539 | 0.468 | 0.636 | 1.01 | 0.734 | 0.595 | 0.528
11 | TEYIQYMRRKN [MAX_Y73] | 0.473 | 0.737 | 0.462 | 0.523 | 0.545 | 0.491 | 0.546 | 0.734 | 0.718 | 0.468 | 0.7 | 0.609 | 0.615 | 0.404 | 0.528 | 0.7
12 | TFEFRYLEDQD [CNOT3_Y746_R750Q_YF] | 0.602 | 0.865 | 0.908 | 0.438 | 0.643 | 0.597 | 0.997 | 1.89 | 1.92 | 0.506 | 0.497 | 0.903 | 1.44 | 0.646 | 0.44 | 0.622
13 | TFGVLYKARNK [CDK2_Y19_V18L_YF] | 0.49 | 0.423 | 0.828 | 0.536 | 0.343 | 0.424 | 0.487 | 0.838 | 0.796 | 0.421 | 0.436 | 0.586 | 0.906 | 0.592 | 0.599 | 0.561
14 | TFHNTYHSHMR [IL1RAPL1_Y615_Q618H] | 0.861 | 1.51 | 1.09 | 0.44 | 0.482 | 0.554 | 0.538 | 0.529 | 0.725 | 0.4 | 0.67 | 0.424 | 0.884 | 0.367 | 0.485 | 0.667
15 | THLARYSDELR [APOA1_Y190_P189R] | 0.554 | 0.622 | 0.96 | 0.616 | 0.494 | 0.397 | 0.405 | 0.653 | 0.543 | 0.539 | 0.437 | 0.449 | 0.645 | 0.32 | 0.412 | 0.4
16 | TIWDSYTTNKV [GNB1_Y85_I80T] | 0.388 | 0.893 | 0.855 | 0.485 | 0.463 | 0.496 | 0.699 | 0.964 | 1.19 | 0.444 | 0.509 | 0.633 | 1.11 | 0.537 | 0.452 | 0.473
17 | TKDTFHKQPMF [GBA_Y451_Y451H] | 0.547 | 0.884 | 0.884 | 0.249 | 0.403 | 0.459 | 0.445 | 0.454 | 0.468 | 0.333 | 0.304 | 0.391 | 0.476 | 0.29 | 0.352 | 0.312
18 | TKDTFYKQPMF [GBA_Y451] | 0.401 | 0.692 | 0.571 | 0.362 | 0.385 | 0.42 | 0.954 | 0.583 | 0.535 | 0.419 | 0.389 | 0.42 | 0.638 | 0.257 | 0.37 | 0.39
19 | TKFVAYIESQG [KDM4B_Y34_N29T_YF] | 0.6 | 0.703 | 0.736 | 0.403 | 0.307 | 0.396 | 0.64 | 0.974 | 1.12 | 0.497 | 0.51 | 0.685 | 1.02 | 0.499 | 0.56 | 0.578
20 | TLCLCYKETEE [ATP8B1_Y658_I661T] | 0.496 | 0.672 | 0.783 | 0.737 | 0.483 | 0.617 | 1.29 | 1.42 | 1.53 | 0.708 | 0.573 | 0.903 | 1.64 | 0.879 | 0.749 | 0.647

More lines, main results first:

Row | SH2 binding enrichment (c-Src SH2) | SH2 binding enrichment (SHP2-C SH2) | SH2 binding enrichment (Grb2 SH2) | Sequence | phosphorylation enrichment (Fer (mouse)) | phosphorylation enrichment (MERTK) | phosphorylation enrichment (c-Src) | phosphorylation enrichment (c-Abl (mouse)) | phosphorylation enrichment (AncSZ) | phosphorylation enrichment (Jak2) | phosphorylation enrichment (Fyn) | phosphorylation enrichment (FGFR1) | phosphorylation enrichment (FGFR3) | phosphorylation enrichment (Fes) | phosphorylation enrichment (EPHB1) | phosphorylation enrichment (EPHB2) | phosphorylation enrichment (Hck)
21 | 0.543 | 0.733 | 0.746 | SVEELYAIPPD [PEAK1_Y797] | 5.23 | 9.81 | 3.28 | 9.56 | 3.92 | 1.78 | 2.88 | 5.57 | 5.64 | 1.59 | 3.15 | 13.6 | 4.24
22 | 0.556 | 0.7 | 0.939 | SVTCPYSPALN [TP53_Y126_T125P] | 0.656 | 0.437 | 2.15 | 1.21 | 0.961 | 1.17 | 0.481 | 0.505 | 0.679 | 1.29 | 0.572 | 0.573 | 0.616
23 | 0.385 | 0.65 | 0.659 | SVTCTNSPALN [TP53_Y126_Y126N] | 0.588 | 0.487 | 0.504 | 0.762 | 0.907 | 1.08 | 0.495 | 0.491 | 0.699 | 1.24 | 0.586 | 0.483 | 0.447
24 | 0.469 | 0.551 | 0.639 | SVTCTYSPTLN [TP53_Y126_A129T] | 0.667 | 0.503 | 0.58 | 0.926 | 1.48 | 1.4 | 0.566 | 0.606 | 0.912 | 1.58 | 0.92 | 0.682 | 0.625
25 | 0.373 | 0.693 | 0.68 | SVTCTYYPALN [TP53_Y126_S127Y] | 0.556 | 0.412 | 0.575 | 1.01 | 1.52 | 1.36 | 0.48 | 0.499 | 0.831 | 1.36 | 0.645 | 0.617 | 0.592
26 | 0.584 | 0.656 | 0.814 | SVVVCYEPPEV [TP53_Y220_P219C] | 0.678 | 0.457 | 0.518 | 0.849 | 1.78 | 1.07 | 0.573 | 0.509 | 0.78 | 1.19 | 0.751 | 0.697 | 0.616
27 | 0.569 | 0.781 | 0.726 | SVVVPYEPHEV [TP53_Y220_P223H] | 1.38 | 0.493 | 0.513 | 0.803 | 1.05 | 1.18 | 0.54 | 0.542 | 0.835 | 1.25 | 0.716 | 0.615 | 0.577
28 | 0.535 | 0.696 | 0.969 | SVVVPYQPPEV [TP53_Y220_E221Q] | 0.467 | 0.383 | 0.44 | 1.51 | 0.728 | 0.784 | 0.399 | 0.494 | 0.596 | 0.918 | 0.645 | 0.51 | 0.445
29 | 0.63 | 0.798 | 0.914 | SWSTSYSGYRC [NKAPL_Y91_Y96C] | 0.532 | 0.443 | 0.848 | 0.751 | 0.944 | 0.98 | 0.462 | 0.585 | 0.62 | 0.993 | 0.551 | 0.547 | 0.552
30 | 0.571 | 1.02 | 0.938 | TEAEPYFRSLR [NPHS1_Y1138_YF] | 0.494 | 0.447 | 0.477 | 0.758 | 0.852 | 0.843 | 0.557 | 0.399 | 0.639 | 0.953 | 0.448 | 0.519 | 0.511
31 | 0.463 | 0.64 | 0.834 | TEYIQYVRRKN [MAX_Y73_M74V] | 0.454 | 0.647 | 0.657 | 0.875 | 0.712 | 0.548 | 0.615 | 0.528 | 0.488 | 0.573 | 0.465 | 0.425 | 0.589
32 | 0.348 | 0.512 | 0.851 | TFGNLYGSRKQ [YIPF7_Y59_A54T_YF] | 0.457 | 0.641 | 1.81 | 0.585 | 0.629 | 0.507 | 0.911 | 0.514 | 0.421 | 0.788 | 0.366 | 0.398 | 3.44
33 | 0.593 | 0.801 | 0.783 | TGILLHGLASR [QARS1_Y57_Y57H] | 0.218 | 0.419 | 0.469 | 0.528 | 0.417 | 0.488 | 0.281 | 0.367 | 0.379 | 0.629 | 0.28 | 0.328 | 0.301
